# Measured values reported in patent publication US20250376529A1 (Amgen, published 2025).
# Residue numbers refer to the chain shown, from its start.
# B1: 18E3 (antibody, human IgG1, kappa, N297G)
# heavy: not shown
# light: EIVLTQSPGTLSLSPGERATLSCRASQSISYSYLAWYQQKPGQAPRLLIYGASSRATGIPDRFSGSGSGTDFTLTISRQEPDDFAVYYCQQYGSSPLTFGGGTKVEIKRTVAAPSVFIFPPSDEQLKSGTASVVCLLNNFYPREAKVQWKVDNALQSGNSQESVTEQDSKDSTYSLSSTLTLSKADYEKHKVYACEVTHQGLSSPVTKSFNRGEC
# B2: 18E3.005 (antibody, human IgG1, kappa, N297G)
# heavy: not shown
# light: B1 light with Q79L
# B3: 18E3.007 (antibody, human IgG1, kappa, N297G)
# heavy: not shown
# light: B1 light
# B4: 18E3.008 (antibody, human IgG1, kappa, N297G)
# heavy: not shown
# light: B1 light
# B5: 18E3.004 (antibody, human IgG1, kappa, N297G)
# heavy: not shown
# light: B1 light with Q79L
# B6: 18E3.003 (antibody, human IgG1, kappa, N297G)
# heavy: not shown
# light: B1 light
# B7: 18E3.002 (antibody, human IgG1, kappa, N297G)
# heavy: not shown
# light: B1 light with Q79L
# B8: 18E3.006 (antibody, human IgG1, kappa, N297G)
# heavy: not shown
# light: B1 light with Q79L
# B9: 2G10_LC1.003 (antibody, human IgG1, kappa, N297G, V domains shown)
# VH: not shown
# VL: EIVMTQSPATLSVSPGERATLSCRASQSVSSNLAWYQQKPGQAPRLLIYGAATRATGIPARFSGSGSGTEFTLTISSLQSEDFAVYYCQQYNNWPLTFGGGTKVEIKR
# B10: 2G10_LC1.009 (antibody, human IgG1, kappa, N297G, V domains shown)
# VH: not shown
# VL: B9 VL with Q79E, S80P
# B11: 2G10_LC1.004 (antibody, human IgG1, kappa, N297G, V domains shown)
# VH: QVQLVESGGGVVQPGRSLRLSCAASGFTFSNYGMHWVRQAPGEGLEWVAAIWFDASDKYYADSVKGRFTISRDNSKNTLYLQMNSLRAEDTAVYYCARDQAIFGVVPDYWGQGTLVTVSS
# VL: B9 VL
# B12: 2G10_LC1 (antibody, human IgG1, kappa, N297G, V domains shown)
# VH: B11 VH with A55G
# VL: B9 VL with F62V
# B13: 2G10_LC1.005 (antibody, human IgG1, kappa, N297G, V domains shown)
# VH: not shown
# VL: B9 VL
# B14: 2G10_LC1.007 (antibody, human IgG1, kappa, N297G, V domains shown)
# VH: not shown
# VL: B9 VL with Q79E, S80P, W94F
# B15: 2G10_LC1.008 (antibody, human IgG1, kappa, N297G, V domains shown)
# VH: not shown
# VL: B9 VL with Q79E, S80P, W94Y
# B16: 2G10_LC1.010 (antibody, human IgG1, kappa, N297G, V domains shown)
# VH: not shown
# VL: B9 VL with Q79E, S80P
# B17: 17H11.004.001 (antibody, human IgG1, kappa, N297G, V domains shown)
# VH: QVQLQESGPGLVKPSETLSLTCTVSGGSISSYYWSWIRQPAGKGLEWIGRIYTSGSTNYNPSLKSRVTMSIDTSKNQFSLKLNSVTAADTAVYYCARDVAVAGFDYWGQGTLVTVSS
# VL: DIQMTQSPSSVSASVGDRVTITCRASQGLIIWLAWYQQKPGKAPKLLIYAASSLQSGVPSRFSGSGSGTDFTLTISSLQPEDFATYYCQQTNSFPPTFGQGTKVEIKR
# notes: also called iPS:359621; iPS:359623
# B18: 12H11.002 (antibody, human IgG1, kappa, N297G, V domains shown)
# VH: QVPLVQSGAEVKKPGASVKVSCKASGYTFTGYYIHWVRQAPGQGLEWMGWISPNQGETNYAQKFQDRVTMTRDTSISTAYMELSRLRSDDTAVYYCAREATIFGMLIVPFDYWGQGTLVTVSS
# VL: DIVMTQSPDSLSVSLGERATINCKSSQSVLSSSNNKNYLAWYQQKPGQPPNLLIYWTSTRDSGVPDRFSGSGSGTDFTLTINSLQAEDVAVYYCQQYYRTPWTFGQGTKVEIKR
# B19: 11C1 (antibody, human IgG1, kappa, N297G, V domains shown)
# VH: B18 VH with E46V, Q55S, E57D, N59S, Y95F, A97T
# VL: B18 VL
# B20: 11C1.002 (antibody, human IgG1, kappa, N297G, V domains shown)
# VH: B18 VH with E46V, Q55S, N59S, Y95F
# VL: not shown
# B21: 12H11.003 (antibody, human IgG1, kappa, N297G, V domains shown)
# VH: B18 VH with E57D
# VL: B18 VL
# B22: 11C1.005 (antibody, human IgG1, kappa, N297G, V domains shown)
# VH: B18 VH with E46V, Q55S, N59S, Y95F, A97T
# VL: not shown
# B23: 12H11 (antibody, human IgG1, kappa, N297G, V domains shown)
# VH: B18 VH with Q55N, E57D, A97T
# VL: B18 VL
# B24: 11C1.004 (antibody, human IgG1, kappa, N297G, V domains shown)
# VH: B18 VH with E46V, Q55S, N59S, Y95F
# VL: B18 VL
# B25: 11C1.008 (antibody, human IgG1, kappa, N297G, V domains shown)
# VH: B18 VH with E46V, Q55S, E57D, N59S, Y95F
# VL: B18 VL
# B26: 11C1.007 (antibody, human IgG1, kappa, N297G, V domains shown)
# VH: B18 VH with E46V, Q55S, N59S, Y95F, A97T
# VL: B18 VL
# B27: 11C1.003 (antibody, human IgG1, kappa, N297G, V domains shown)
# VH: B18 VH with E46V, Q55S, E57D, N59S, Y95F
# VL: not shown
# B28: 11C1.006 (antibody, human IgG1, kappa, N297G, V domains shown)
# VH: B18 VH with E46V, Q55S, E57D, N59S, Y95F, A97T
# VL: not shown
# B29: 4H9.004.005 (antibody, human IgG1, kappa, N297G, V domains shown)
# VH: not shown
# VL: DIQMTQSPSSLSASVGDRVTITCRASQGIRNELGWYQQKPGKAPKRLIYGASSLQSGVPSRFSGSGSGTEFTLTISSLQPEDFVTYYCLQHNSYPFTFGQGTKVDVKR
# B30: 4H9.004.006 (antibody, human IgG1, kappa, N297G, V domains shown)
# VH: not shown
# VL: B29 VL with R46L
# B31: 4H9.004 (antibody, human IgG1, kappa, N297G, V domains shown)
# VH: QVQLVESGGGVVQPGRSLRLSCAASGFTFSYFGMHWVRQAPGKGLEWVAVIWYDGSNKYYADSVKGRFTISRDNSKNTLYLQMNSLRAEDTAVYYCARDGTIFGVLLGDYWGQGTLVTVSS
# VL: B29 VL with Q100P
# B32: 5C2.007 (antibody, human IgG1, kappa, N297G, V domains shown)
# VH: QVPLVQSGAEVKKPGASVKVSCKASGYTFTGYYIHWVRQAPGQGLEWMGWINPESGGTDYSQRFQGRFTMTRDTSISTAYMELNRLRSDDTAVYYCAREATIFGMVIVPFDYWGQGTLVTVSS
# VL: not shown
# B33: 13H12.006 (antibody, human IgG1, kappa, N297G, V domains shown)
# VH: B32 VH with F68V, N84S
# VL: not shown
# B34: 13H12.002 (antibody, human IgG1, kappa, N297G, V domains shown)
# VH: B32 VH with F68V, N84S
# VL: not shown
# B35: 13H12.003 (antibody, human IgG1, kappa, N297G, V domains shown)
# VH: B32 VH with N84S
# VL: not shown
# B36: 13H12 (antibody, human IgG1, kappa, N297G, V domains shown)
# VH: B32 VH with E54D, N84S
# VL: not shown
# B37: 13H12.004 (antibody, human IgG1, kappa, N297G, V domains shown)
# VH: B32 VH with E54D, F68V, N84S
# VL: not shown
# Target: T1, Rhesus GIPR (rhesus, UniProt F7E1R9 22-466)
# T1 sequence: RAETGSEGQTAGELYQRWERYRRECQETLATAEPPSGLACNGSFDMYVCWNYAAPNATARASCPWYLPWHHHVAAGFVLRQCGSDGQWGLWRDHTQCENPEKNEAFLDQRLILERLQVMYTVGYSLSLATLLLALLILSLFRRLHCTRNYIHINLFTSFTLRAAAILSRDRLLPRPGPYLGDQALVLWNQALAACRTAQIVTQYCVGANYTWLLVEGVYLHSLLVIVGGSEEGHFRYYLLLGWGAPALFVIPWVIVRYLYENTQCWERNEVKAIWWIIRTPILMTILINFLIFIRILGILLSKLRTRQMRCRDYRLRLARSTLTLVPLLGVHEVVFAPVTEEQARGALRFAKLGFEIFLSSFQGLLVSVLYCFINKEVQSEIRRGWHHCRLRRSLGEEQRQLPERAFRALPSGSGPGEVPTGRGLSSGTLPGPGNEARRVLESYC
# Experiment: cell-based or functional assay
binder,measurement,value
B1,Rhesus GIPR CAMP Assay (Conc. mAb @ 60% Inhibition in nM),0.25 nM
B2,Rhesus GIPR CAMP Assay (Conc. mAb @ 60% Inhibition in nM),0.1 nM
B3,Rhesus GIPR CAMP Assay (Conc. mAb @ 60% Inhibition in nM),0.24 nM
B4,Rhesus GIPR CAMP Assay (Conc. mAb @ 60% Inhibition in nM),0.37 nM
B5,Rhesus GIPR CAMP Assay (Conc. mAb @ 60% Inhibition in nM),0.06 nM
B6,Rhesus GIPR CAMP Assay (Conc. mAb @ 60% Inhibition in nM),0.12 nM
B7,Rhesus GIPR CAMP Assay (Conc. mAb @ 60% Inhibition in nM),0.16 nM
B8,Rhesus GIPR CAMP Assay (Conc. mAb @ 60% Inhibition in nM),0.12 nM
B9,Rhesus GIPR CAMP Assay (Conc. mAb @ 60% Inhibition in nM),0.85 nM
B10,Rhesus GIPR CAMP Assay (Conc. mAb @ 60% Inhibition in nM),0.71 nM
B11,Rhesus GIPR CAMP Assay (Conc. mAb @ 60% Inhibition in nM),0.58 nM
B12,Rhesus GIPR CAMP Assay (Conc. mAb @ 60% Inhibition in nM),0.67 nM
B13,Rhesus GIPR CAMP Assay (Conc. mAb @ 60% Inhibition in nM),0.43 nM
B14,Rhesus GIPR CAMP Assay (Conc. mAb @ 60% Inhibition in nM),16.3 nM
B15,Rhesus GIPR CAMP Assay (Conc. mAb @ 60% Inhibition in nM),4 nM
B16,Rhesus GIPR CAMP Assay (Conc. mAb @ 60% Inhibition in nM),0.86 nM
B17,Rhesus GIPR CAMP Assay (Conc. mAb @ 60% Inhibition in nM),0.22 nM
B18,Rhesus GIPR CAMP Assay (Conc. mAb @ 60% Inhibition in nM),0.45 nM
B19,Rhesus GIPR CAMP Assay (Conc. mAb @ 60% Inhibition in nM),0.65 nM
B20,Rhesus GIPR CAMP Assay (Conc. mAb @ 60% Inhibition in nM),0.39 nM
B21,Rhesus GIPR CAMP Assay (Conc. mAb @ 60% Inhibition in nM),0.6 nM
B22,Rhesus GIPR CAMP Assay (Conc. mAb @ 60% Inhibition in nM),0.42 nM
B23,Rhesus GIPR CAMP Assay (Conc. mAb @ 60% Inhibition in nM),0.79 nM
B24,Rhesus GIPR CAMP Assay (Conc. mAb @ 60% Inhibition in nM),0.33 nM
B25,Rhesus GIPR CAMP Assay (Conc. mAb @ 60% Inhibition in nM),0.43 nM
B26,Rhesus GIPR CAMP Assay (Conc. mAb @ 60% Inhibition in nM),0.4 nM
B27,Rhesus GIPR CAMP Assay (Conc. mAb @ 60% Inhibition in nM),0.48 nM
B28,Rhesus GIPR CAMP Assay (Conc. mAb @ 60% Inhibition in nM),0.51 nM
B29,Rhesus GIPR CAMP Assay (Conc. mAb @ 60% Inhibition in nM),0.65 nM
B30,Rhesus GIPR CAMP Assay (Conc. mAb @ 60% Inhibition in nM),0.35 nM
B31,Rhesus GIPR CAMP Assay (Conc. mAb @ 60% Inhibition in nM),0.43 nM
B32,Rhesus GIPR CAMP Assay (Conc. mAb @ 60% Inhibition in nM),0.66 nM
B33,Rhesus GIPR CAMP Assay (Conc. mAb @ 60% Inhibition in nM),0.92 nM
B34,Rhesus GIPR CAMP Assay (Conc. mAb @ 60% Inhibition in nM),0.95 nM
B35,Rhesus GIPR CAMP Assay (Conc. mAb @ 60% Inhibition in nM),0.83 nM
B36,Rhesus GIPR CAMP Assay (Conc. mAb @ 60% Inhibition in nM),0.67 nM
B37,Rhesus GIPR CAMP Assay (Conc. mAb @ 60% Inhibition in nM),0.56 nM
